Reference: US20080107658A1 (AstraZeneca / MedImmune, published 2008)

T1: human p75 receptor fusion protein (R&D Systems) (human, UniProt P08138 29-250)
T1 construct: bought fusion protein; also called p75 neurotrophin receptor
T1 sequence (looked up): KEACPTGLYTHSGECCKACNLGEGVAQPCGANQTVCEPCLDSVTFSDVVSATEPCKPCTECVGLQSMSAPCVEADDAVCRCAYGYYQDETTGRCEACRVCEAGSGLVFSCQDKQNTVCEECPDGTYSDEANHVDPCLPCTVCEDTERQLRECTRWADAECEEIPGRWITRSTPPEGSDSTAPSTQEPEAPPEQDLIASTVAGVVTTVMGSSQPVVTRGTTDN

B1: rat nerve growth factor (beta-NGF) (ligand, UniProt P25427 122-241, looked up)
chain: SSTHPVFHMGEFSVCDSVSVWVGDKTTATDIKGKEVTVLGEVNINNSVFKQYFFETKCRAPNPVESGCRGIDSKHWNSYCTTTHTFVKALTTDDKQAAWRFIRIDTACVCVLSRKAARRG
notes: mature; also called rat NGF; recombinant rat β-NGF
B2: 1033B2 scFv (scFv, V domains shown)
VH: QVQLQQSGAEVKKPGSSVKLSCKASGGTFSSFGISWVRQAPGQGLEWLGRIIPFLGPADYAQKFQGRVTITADESRSTAYMELSSLTSEDTAVYFCARSFYDILTGYYEGVFYYYMDVWGQGTMVTVSS
VL: QSVLIQPASVSGSPGQSITISCTGTSSDVGGYNYVSWYQQHPGKAPKLMIYEGSKRPSGVSNRFSGSKSGNTASLTISGLQAEDEADYYCSSYTTRSTRVFGGGTKLTVL
notes: purified scFv
B3: 1057F11 scFv (scFv, V domains shown)
VH: EVQLVETGGGVVQPGTSLRLSCAASGFTFSSHGMHWVRQAPGQGLEWVAHAWSDGSNKYYADSLKGRFTISRDNSRNTLYLQMNSLRAEDTAVYYCARDGQQLANYAMDVWGRGTTVTVSS
VL: DIQMTQSPSFLSASVGDRVTITCRASQGINSYLAWYQQIPGKAPNLLIYAASTLQSGVPSRFSGSGSGTEFTLTISSLQPEDFATYYCQQLNTYPFTFGPGTKVEIK
notes: purified scFv

What was measured:
[1] = target: T2, human TrkA receptor extracellular domain fusion protein (R&D Systems) (human, UniProt P04629 33-423); experiment: unlabelled NGF displacing rat 125I-NGF from coated TrkA fusion protein
T2 construct: extracellular domain; bought fusion protein; also called TrkA receptor fusion protein
T2 sequence (P04629 33-423): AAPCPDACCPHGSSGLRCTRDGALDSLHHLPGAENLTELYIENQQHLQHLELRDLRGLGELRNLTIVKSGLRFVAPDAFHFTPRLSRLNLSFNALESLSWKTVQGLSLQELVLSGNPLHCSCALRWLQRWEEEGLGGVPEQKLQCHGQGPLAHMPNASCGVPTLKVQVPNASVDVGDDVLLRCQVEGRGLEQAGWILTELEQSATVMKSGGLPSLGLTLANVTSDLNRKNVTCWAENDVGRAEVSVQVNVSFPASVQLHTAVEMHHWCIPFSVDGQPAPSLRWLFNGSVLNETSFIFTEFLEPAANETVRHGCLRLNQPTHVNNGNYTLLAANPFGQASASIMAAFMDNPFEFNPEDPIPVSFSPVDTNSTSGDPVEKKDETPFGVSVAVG

[2] = target: T1, human p75 receptor fusion protein (R&D …); experiment: unlabelled NGF displacing rat 125I-NGF from coated p75 fusion protein
Procedure: Human TrkA and p75 receptor fusion proteins (R&D Systems) were diluted in Dulbecco's PBS (Gibco) to final concentrations of 10 nM and 0.6 nM, respectively. Maxisorp Nunc white 96 well microtitre plates (Nalge Nunc) were coated overnight at 4° C. with 100 μl/well of the diluted TrkA or p75 receptor solution. Plates were washed 3 times with PBS Tween 20, and then blocked with 200 μl/well 3% w/v bovine serum albumin (BSA) in PBS. Plates were washed after 1 h incubation at room temperature. Test antibodies were diluted to the desired concentration in assay buffer (0.5% w/v BSA and 0.05% v/v Tween 20 in PBS). […] Duplicate wells were prepared for each concentration of test sample. […] Bound radiolabel was quantified by addition of 100 μl/well Microscint 20 (Perkin Elmer) followed by counting using a Packard TopCount microplate liquid scintillation counter. Data were plotted and analysed using Graphpad Prism software to calculate IC₅₀ values for each experiment, and to derive the corresponding Ki according to the Cheng-Prusoff equation; Ki=IC₅₀/(1+D/Kd) Where: [0257]

[3] = target: B1; experiment: purified scFv, inhibition of NGF binding to coated TrkA fusion protein (DELFIA)
Procedure: Crude scFv samples were prepared from periplasmic lysates of E. coli TG-1 bacteria transfected with selected phage for evaluation in the binding assay. […] Assay plates were washed with PBS/Tween 20, blocked for 2 h using 1% bovine serum albumin (BSA) in PBS, and washed again. […] Samples were transferred in a volume of 100 μl to assay plates and incubated for 60 min at room temperature. […] Briefly, plates were washed and 100 μl streptavidin Eu³⁺ added to each well, diluted 1/1000 in DELFIA assay buffer. Plates were incubated for a further 60 min at room temperature and washed with DELFIA wash buffer, followed by addition of 100 μl DELFIA enhancement solution to each well. Plates were read using a Wallac Victor fluorimetric plate reader (excitation wavelength 314 nm; emission wavelength 615 nm).
Purified scFv preparations were prepared as described in Example 3 of WO01/66754. Protein concentrations of purified scFv preparations were determined using the BCA method (Pierce).

IC50 [1] [nM]	Ki [1] [nM]	IC50 [2] [nM]	Ki [2] [nM]	binding result [3]	Binder
1.3	1.2	0.783	0.71		B1
				binds	B2
				binds	B3
